Measurements as given in the supplement of paper PMC10724198.
± gives the standard deviation of the averaged measurements.

system: Saccharomyces cerevisiae; assay: protein stability index of tFT-peptide fusion (C-terminal peptide) (PSI (0-1 scale)); higher = more stable (slower turnover); settings: genetic background: wild type; temperature: 30 C
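Also: PSI is a weighted mean of sequencing reads over stability bins, variants kept only with over 10 reads, mCherry proximal and sfGFP distal, peptide attached via GGGS linker.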

Row | Sequence | protein stability index
1 | YSHPCLSCREAH | 0.749 ± 0.057
2 | SQLKHLPPDREC | 0.679 ± 0.016
3 | IKVKRRQLKQEK | 0.779 ± 0.097
4 | PLPPPPTPPSLS | 0.716 ± 0.046
5 | GDITEVDISKHI | 0.75 ± 0.051
6 | NLTKTLNNDIIK | 0.68183 ± 0.00011
7 | GWFFFGCFECGG | 0.731 ± 0.024
8 | KQKQNKKKNNKT | 0.843 ± 0.16
9 | FPSFSLIFFSLI | 0.489 ± 0.074
10 | DGVGVPGCGRVG | 0.734 ± 0.075
11 | SILTALGEVLLV | 0.665 ± 0.013
12 | SERVCHESCLVG | 0.68 ± 0.047
13 | GVSCIAEGRGGV | 0.6693 ± 0.0045
14 | PGLRRHPPPPPP | 0.739 ± 0.071
15 | LPPLPPPSPFPS | 0.762 ± 0.074
16 | TEKTEAKNCNTK | 0.697 ± 0.0089
17 | QGRLRLSLLVSG | 0.526 ± 0.0048
18 | EKKEINKIKNQN | 0.662 ± 0.028
19 | GAGRAVRAFCVL | 0.651 ± 0.02
20 | PLPPPPPARLVP | 0.649 ± 0.048
21 | GSPTSAPLSPPP | 0.686 ± 0.0038
22 | NEPEKGQRKRRE | 0.8051 ± 0.0073
23 | APSPLLPPHSPP | 0.612 ± 0.043
24 | PRGSSRSTFFLF | 0.603 ± 0.046
25 | PLPPPPRLRCSS | 0.649 ± 0.069
26 | LCSGRGGRVCGG | 0.669 ± 0.038

Row | Sequence | protein stability index
27 | WFLRSFGIQRSG | 0.511 ± 0.0047
28 | LWSSRPGFDDVW | 0.6426 ± 0.0011
29 | PSSPPCPPPLPS | 0.624 ± 0.02
30 | ILFGSILGVPLL | 0.661 ± 0.01
31 | RKNQGKKREPRA | 0.653 ± 0.079
32 | WGRNGRRMEVTK | 0.687 ± 0.017
33 | PRPPPPSPIPPL | 0.7265 ± 0.0018
34 | RPSPVLRASHPP | 0.638 ± 0.0099
35 | ERDDRSFEWPRQ | 0.69 ± 0.025
36 | PLSDRGGRFPML | 0.7 ± 0.053
37 | KKDQEKEKKGKE | 0.613 ± 0.015
38 | CVLLGSTIPAIV | 0.645 ± 0.043
39 | PVWVDRGVLWSV | 0.716 ± 0.094
40 | PPPQGSQPSTLS | 0.739 ± 0.051
41 | PSPFSPPPPSSP | 0.736 ± 0.028
42 | AGGVEGRRRVGE | 0.642 ± 0.073
43 | KQGFVRARSYHP | 0.699 ± 0.013
44 | HPSAALLSSCYK | 0.677 ± 0.047
45 | CCSSCFVLSKAA | 0.6463 ± 0.0031
46 | FSTIWDRLLLTG | 0.668 ± 0.083
47 | GHVPIWPFLSLS | 0.6664 ± 0.0042
48 | HRRMGVGGCLEE | 0.682 ± 0.046
49 | IMCPVRDSNIFS | 0.733 ± 0.026
50 | PSPPPPPPTPAS | 0.655 ± 0.024
51 | PLTFRYQSHSAH | 0.702 ± 0.11
52 | WPGICVWAGSPG | 0.717 ± 0.06

Row | Sequence | protein stability index
53 | LPPATMFFISAS | 0.558 ± 0.019
54 | PDSIVACGPVGR | 0.702 ± 0.043
55 | RPPGQVSEALEW | 0.68961 ± 3.4e-05
56 | RRAPASAFPHSP | 0.688 ± 0.06
57 | VGRSAAGRLELI | 0.679 ± 0.014
58 | GWLLGVGDEFRR | 0.734 ± 0.031
59 | RRGVPIKKPRYF | 0.539 ± 0.029
60 | LNLSIRDVTSSG | 0.657 ± 0.013
61 | PRLVTLALPRTR | 0.716 ± 0.015
62 | TPPVPVPPPQLL | 0.748 ± 0.044
63 | RWWRLRSGGGRR | 0.707 ± 0.017
64 | PFCTRRSVRYRS | 0.719 ± 0.049
65 | GVLARAYPTLWV | 0.68 ± 0.035
66 | VRGGGRARRRGS | 0.7347 ± 0.0044
67 | PSPPPPAPRPPP | 0.657 ± 0.03
68 | HRPPATPADPCS | 0.684 ± 0.019
69 | DLATSVVYIVTV | 0.506 ± 0.0077
70 | IEKKNKTKKKRI | 0.748 ± 0.13
71 | SPVRLSSVPRPY | 0.683 ± 0.019
72 | DAGLCGCCGVIG | 0.666 ± 0.057
73 | RLPPALRRNAPP | 0.665 ± 0.18
74 | WRFTSCCPDPAT | 0.772 ± 0.076
75 | GGGVGWWVSYVG | 0.673 ± 0.012
76 | PFLGHCPPTPPP | 0.732 ± 0.044
77 | GWWGGEGVEGEP | 0.6846 ± 0.0015
78 | HPGVPGSPFLSC | 0.714 ± 0.041

Row | Sequence | protein stability index
79 | IWGLSGGKKLLW | 0.718 ± 0.043
80 | ASFPPPPAAPPP | 0.673 ± 0.093
81 | PHPSPSSPPLLP | 0.657 ± 0.043
82 | VYGVVVWLFGFL | 0.678 ± 0.0095
83 | LVRFRADEPRGG | 0.688 ± 0.058
84 | GKGREGVGEVGK | 0.6753 ± 0.0043
85 | EVLTSRWCGLIS | 0.744 ± 0.074
86 | VCNFCFLPASLV | 0.636 ± 0.021
87 | PPLAPLPSAPLR | 0.674 ± 0.058
88 | VSRPPPRNPTPP | 0.728 ± 0.078
89 | LIQSDKTPRTTR | 0.696 ± 0.012
90 | NRLVRLSQGGRE | 0.668 ± 0.019
91 | SLWLRLAIPSRY | 0.68862 ± 0.00061
92 | RKGKARKKQKRI | 0.721 ± 0.1
93 | LLAGEDGGVGEE | 0.653 ± 0.057
94 | CILYTGYDLGNV | 0.7 ± 0.021
95 | PLPPPPPPPRSP | 0.718 ± 0.077
96 | VFLVDCFGVCFL | 0.784 ± 0.048
97 | LLPLPPPPPPPP | 0.685 ± 0.063
98 | AREEGRQNQGMP | 0.665 ± 0.042
99 | APPFRLLPLPSP | 0.7573 ± 0.005
100 | LVLVGISCVKGR | 0.597 ± 0.02
101 | IRSVNFNIFVKR | 0.748 ± 0.057
102 | PVPLVLSFLCDL | 0.686 ± 0.03
103 | GVPQEGHGLEGY | 0.7045 ± 0.00013
104 | VSFSSLLRFCRG | 0.671 ± 0.0091

Row | Sequence | protein stability index
105 | SRSETIQTGIGW | 0.706 ± 0.012
106 | GAGLWGGRGRRW | 0.6489 ± 0.0063
107 | PAPPALPFHCPR | 0.654 ± 0.075
108 | PPHPPAPHPSPT | 0.733 ± 0.069
109 | PSEAPEAPLPRP | 0.731 ± 0.082
110 | LGPRRPGQSGSR | 0.712 ± 0.011
111 | GLVSSDVGFRGY | 0.73 ± 0.019
112 | GKNGKNMDKDNK | 0.676 ± 0.019
113 | TCERGGQIKCRV | 0.657 ± 0.058
114 | SVLCRIGAGCAM | 0.629 ± 0.018
115 | SLQPRRGQPVTG | 0.711 ± 0.0078
116 | SRSSPLYRRGVR | 0.679 ± 0.089
117 | LAGVSTPLPPPP | 0.696 ± 0.029
118 | QPALGNTNKYKN | 0.676 ± 0.049
119 | QKRIALNSQKNT | 0.688 ± 0.048
120 | GKGRIWTGRKGC | 0.68 ± 0.098
121 | VGHGGRRGVGGW | 0.612 ± 0.057
122 | KARMTDQLKSTS | 0.672 ± 0.045
123 | HSGGRVYSYACI | 0.6851 ± 0.0017
124 | VQMKVKKRLNEW | 0.6744 ± 0.0046
125 | YKKVKADKKKRM | 0.687 ± 0.017
126 | QTSASSAALLRP | 0.622 ± 0.042
127 | VGVKLVVEAIRR | 0.6322 ± 0.0039
128 | SLQRLFGRGGMV | 0.643 ± 0.1
129 | PLLGPFTPSSLL | 0.737 ± 0.0088
130 | SSVRPHPAPPHT | 0.701 ± 0.01

Row | Sequence | protein stability index
131 | PPCRREEQTDNH | 0.682 ± 0.059
132 | ARIWLGSTSVSR | 0.739 ± 0.14
133 | LLPLRPRSLGPP | 0.693 ± 0.0011
134 | FRLPTCLLLFPF | 0.594 ± 0.098
135 | SPHPLLSSPPPA | 0.686 ± 0.075
136 | SRLLPPLPPLSP | 0.767 ± 0.097
137 | LFAKVVSGYDLG | 0.711 ± 0.024
138 | GGGSITTFIGDE | 0.695 ± 0.018
139 | EEKRPWRRELLS | 0.562 ± 0.025
140 | TLSPPPLSPSAP | 0.711 ± 0.013
141 | EKVGAGVRLAWN | 0.695 ± 0.003
142 | GRRWPVPGGVSA | 0.693 ± 0.09
143 | RASPFPAMSAQV | 0.684 ± 0.023
144 | SSNLLFCSIFYV | 0.6181 ± 0.0021
145 | AINAHGISKSYA | 0.688 ± 0.019
146 | VLRFHIRRTQQQ | 0.707 ± 0.012
147 | QRRARVSDISVY | 0.634 ± 0.012
148 | NRTPTPNQTPPT | 0.6798 ± 0.0048
149 | VRAVGSIILPPG | 0.6558 ± 0.00093
150 | VGCPGGVWVFRG | 0.535 ± 0.011
151 | HSCSRPLTPPPF | 0.72 ± 0.028
152 | VSGMRRRFGNRL | 0.756 ± 0.11
153 | SSSACNMPVVRL | 0.705 ± 0.05
154 | GFLCLISSLGFM | 0.687 ± 0.051
155 | YANFFVVGELGP | 0.687 ± 0.02
156 | SLPPHPAPPPAA | 0.757 ± 0.014

Row | Sequence | protein stability index
157 | SASLPSPCPDFG | 0.6703 ± 0.0021
158 | YRAHAYPYVPRS | 0.682 ± 0.027
159 | REVLYCTSMLQD | 0.707 ± 0.038
160 | PRCRSLPPLRVL | 0.6975 ± 0.0037
161 | PPLLPLSPRPPA | 0.704 ± 0.089
162 | LPPPPPPPPLPH | 0.705 ± 0.1
163 | GILRGSKKVDPP | 0.622 ± 0.029
164 | YPCPPLLISSPP | 0.709 ± 0.051
165 | PSSAQKNPNPNT | 0.701 ± 0.073
166 | QDTRRRAPYPPS | 0.673 ± 0.051
167 | PPPHPLPPLPAT | 0.744 ± 0.043
168 | PPPNPFRGPFPL | 0.663 ± 0.035
169 | APVHPPPGFLLP | 0.695 ± 0.023
170 | KQRQTKTIRGPR | 0.672 ± 0.059
171 | LPQPQPPVPPPL | 0.7209 ± 0.0042
172 | LLCSSFSFHCFP | 0.667 ± 0.0068
173 | AGPAIEGARAPR | 0.7684 ± 0.0022
174 | CCLGCFLKHGIV | 0.652 ± 0.035
175 | YGTGNGRRTYFD | 0.735 ± 0.04
176 | PHPPPLTQTPHD | 0.704 ± 0.014
177 | TTCKTPPTYSFP | 0.71 ± 0.033
178 | GASVWGRGTRKI | 0.6902 ± 0.0059
179 | FFGFLLFCSRFS | 0.516 ± 0.016
180 | NDKPKTTQKRTP | 0.718 ± 0.0092
181 | GDTQESSHIRIY | 0.669 ± 0.051
182 | QQRHITHRKIRI | 0.6595 ± 0.0048

Row | Sequence | protein stability index
183 | RPAASTKWAVQP | 0.6923 ± 0.0021
184 | ECFRWQRRLHYD | 0.533 ± 0.024
185 | PLTTTPPTRHTP | 0.6978 ± 0.004
186 | PCSPRLPPFPSP | 0.683 ± 0.017
187 | RNPYNTNTVSNI | 0.732 ± 0.08
188 | PSPLPRPPPLPL | 0.656 ± 0.039
189 | VPRAPSPCPVSL | 0.71 ± 0.046
190 | GGGAGWGWGGRM | 0.673 ± 0.017
191 | GFRWGYIGGWRW | 0.741 ± 0.01
192 | LGPLPHDGFSMF | 0.761 ± 0.011
193 | LVLTLAPWILFD | 0.6784 ± 0.0015
194 | PPLALPPGPARP | 0.738 ± 0.016
195 | SSFLSFSSGCQS | 0.757 ± 0.045
196 | PARGPTPHIVPR | 0.667 ± 0.053
197 | LLTSFFTLFCNT | 0.657 ± 0.05
198 | CLCHAPLPLAAP | 0.642 ± 0.013
199 | RLSVRPGPLRLL | 0.68 ± 0.025
200 | PPPPLRPPAAPP | 0.639 ± 0.005
201 | PPPLLPPRPLAP | 0.731 ± 0.019
202 | PPPSDPPPSPPP | 0.665 ± 0.016
